Test [1] concerns the target Lig A10 (10th tandem Big repeat of LigA) (L. interrogans serovar Pomona). The test is described as follows: SEC; Superose 12 10/300 GL, 25 mM HEPES pH 7.0, 50 mM KCl, with and without 3 mM CaCl2; column calibrated with molecular mass markers; self-association, monomer to dimer. A general note: Size exclusion chromatography separates by hydrodynamic size, large species first.

Test [2] concerns the target Lig A9 (9th tandem Big repeat of LigA) (L. interrogans serovar Pomona). The description is as above.
The target of test [3] is LigBCen2 (L. interrogans serovar Pomona). The test is described as follows: SEC; Superose 12 10/300 GL, 50 mM Tris pH 7.0, 50 mM KCl, with and without 3 mM CaCl2; column calibrated with molecular mass markers; self-association, monomer to dimer.

The term stoichiometry N denotes a count of units in the complex or per binding partner. The substance “Lig A10 (10th tandem Big repeat of LigA) (domain or fragment)” gave a stoichiometry N in test [1] of 2.

In test [2], “Lig A9 (9th tandem Big repeat of LigA) (domain or fragment)” showed a stoichiometry N of 2. LigBCen2 (domain or fragment) gave a stoichiometry N in test [3] of 2.

Values taken from PMC3012076.
